Target: BSA
Assay: ITC

B1: UBE2D1 (R&D) (enzyme)
chain: not shown
Kd: > 10 mM

Reference: publication PMC8041205 (2021)
